Laboratory results: patent publication US20180105596A1 (ELSALYS BIOTECH, published 2018)

Columns and labels:
[1] = biological target: T1, recombinant His-Strep tagged human Tyro3 extracellular domain (human, UniProt Q06418 41-429); experiment: BLI (Octet K2), IgG on AHC tips, hTyro3 ECD analyte, 1:1 global fit; kon Error 1,34E+02
T1 construct: also called hTyro3 ECD; full Tyro3 ECD
T1 sequence: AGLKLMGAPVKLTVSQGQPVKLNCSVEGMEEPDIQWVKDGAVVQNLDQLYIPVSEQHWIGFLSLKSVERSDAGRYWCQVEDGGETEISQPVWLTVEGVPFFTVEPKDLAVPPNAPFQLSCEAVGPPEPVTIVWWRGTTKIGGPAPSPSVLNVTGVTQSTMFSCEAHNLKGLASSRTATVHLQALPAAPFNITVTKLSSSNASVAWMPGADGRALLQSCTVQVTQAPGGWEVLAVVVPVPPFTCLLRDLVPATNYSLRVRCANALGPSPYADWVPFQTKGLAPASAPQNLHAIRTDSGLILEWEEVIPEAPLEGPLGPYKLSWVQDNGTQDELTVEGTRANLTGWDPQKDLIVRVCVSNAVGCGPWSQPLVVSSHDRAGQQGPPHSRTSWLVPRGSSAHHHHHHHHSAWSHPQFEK
Procedure: (§1) Affinity determinations were performed using biolayer interferometry on an Octet K2 instrument (Pall/ForteBio) equipped with anti-Human Kinetics (AHC) disposable fiber-optic biosensor tips. All experiments were conducted at 30° C. in the recommended Fortebio running buffer (PBS with 0.1% (w/v) bovine serum albumin (BSA) and 0.02% (v/v) Tween_20). This buffer was also used for dilution of ligand (here the antibody) and of the analyte (here the extra cellular domain of human Tyro3 protein). Samples in a 96-well microplates (No. Black polypropylene low binding plates, Greiner Bio-One, Frickenhausen, Germany) were agitated at 1000 rpm. […] Between measurements, the anti-human Tyro3 biosensor surfaces were regenerated by exposing them to 3 cycles of 5 sec in 10 mM glycine, pH 1.5, followed by 5 sec in PBS. Association phase was measured for 300 seconds, dissociation phase depending on the interaction for 300 seconds depending on dissociation step. […] Affinity, association (kon) and dissociation rate constants (koff) for each antibody were calculated applying a 1:1 interaction model fitting global, Rmax linked by sensor) on the ForteBio data analysis software 9.0.

[2] = biological target: T1, recombinant His-Strep tagged human …; experiment: BLI (Octet K2), IgG on AHC tips, hTyro3 ECD analyte, 1:1 global fit; kdis(1/s); kdis Error 1,42E-05
Procedure: as §1

[3] = biological target: T1, recombinant His-Strep tagged human …; experiment: BLI (Octet K2), 1:1 global fit; analyte concentration of this kobs not given
Procedure: Affinity determinations were performed using biolayer interferometry on an Octet K2 instrument (Pall/ForteBio) equipped with anti-Human Kinetics (AHC) disposable fiber-optic biosensor tips. All experiments were conducted at 30° C. in the recommended Fortebio running buffer (PBS with 0.1% (w/v) bovine serum albumin (BSA) and 0.02% (v/v) Tween_20). This buffer was also used for dilution of ligand (here the antibody) and of the analyte (here the extra cellular domain of human Tyro3 protein). Samples in a 96-well microplates (No. Black polypropylene low binding plates, Greiner Bio-One, Frickenhausen, Germany) were agitated at 1000 rpm. […] Between measurements, the anti-human Tyro3 biosensor surfaces were regenerated by exposing them to 3 cycles of 5 sec in 10 mM glycine, pH 1.5, followed by 5 sec in PBS. Association phase was measured for 300 seconds, dissociation phase depending on the interaction for 300 seconds depending on dissociation step. All measurements were corrected for baseline drift using the double reference substraction, that is to say by subtracting a control sensor without ligand exposed to each concentration of the extra cellular domain of human Tyro3 protein and a reference well with ligand submitted to running buffer only. Affinity, association (kon) and dissociation rate constants (koff) for each antibody were calculated applying a 1:1 interaction model fitting global, Rmax linked by sensor) on the ForteBio data analysis software 9.0.

[4] = biological target: T1, recombinant His-Strep tagged human …; experiment: sandwich ELISA, Strep-tagged hTyro3 ECD captured on StrepMAB plate, IgG 3-fold from 3 µg/mL, anti-human IgG1-HRP
Procedure: (§2) A double sandwich ELISA was developed. This assay consisted in measuring the binding of the anti-Tyro3 antibodies to be tested on immobilized strep-tagged entire human Tyro3 ECD captured directly on ELISA plate pre-coated with an anti-strep mAb (StrepMAB-Immo coated microplates from IBA biotech). Briefly, the 96 wells of StrepMAB-Immo coated microplate were washed three times with 300 μL of the PBS Tween 0.2% (referred as ELISA washing solution). The capture of an excess of purified strep tagged hTyro3 ECD protein was achieved by a one hour incubation at room temperature. In these experiments, 3 μg of purified protein diluted in PBS, BSA 1% (referred as ELISA diluent solution) were immobilized per well. The wells were washed three times with 300 μL of the washing solution. The non-specific binding sites on the well surface were blocked during 60 min at room temperature with 200 μL/well of blocking solution (PBS, BSA 3%). The wells were washed five times with 300 μL of the washing solution. Then, 100 μl (in duplicates) of the different concentrations of anti-Tyro3 antibodies to be tested diluted in ELISA diluent solution, were added per well and allowed to incubate during 1 hour at room temperature. An Irrelevant control IgG2656 was also added in this experiment. For anti-Tyro3 antibodies in the ScFv format, experiments were performed with 6 concentrations in duplicates (FIG. 3A). For anti-Tyro3 antibodies in the IgG format, experiments were performed with 9 concentrations in duplicates (FIG. 3B). […] For IgGs experiments, starting concentration for first dilution was 3 μg/ml and then dilutions of 3 fold in the ELISA diluent solution were performed. The wells were washed five times with 300 μL of the washing solution. […] The mix was allowed to incubated 60 min at room temperature.

[5] = biological target: T2, cynomolgus Tyro3 ECD, His-Strep tagged; experiment: sandwich ELISA, Strep-tagged cynomolgus Tyro3 ECD captured on StrepMAB plate, IgG 3-fold from 3 µg/mL, anti-human IgG1-HRP
T2 construct: also called cyno TYRO3 ECD 8hisstrep
T2 extracellular domain: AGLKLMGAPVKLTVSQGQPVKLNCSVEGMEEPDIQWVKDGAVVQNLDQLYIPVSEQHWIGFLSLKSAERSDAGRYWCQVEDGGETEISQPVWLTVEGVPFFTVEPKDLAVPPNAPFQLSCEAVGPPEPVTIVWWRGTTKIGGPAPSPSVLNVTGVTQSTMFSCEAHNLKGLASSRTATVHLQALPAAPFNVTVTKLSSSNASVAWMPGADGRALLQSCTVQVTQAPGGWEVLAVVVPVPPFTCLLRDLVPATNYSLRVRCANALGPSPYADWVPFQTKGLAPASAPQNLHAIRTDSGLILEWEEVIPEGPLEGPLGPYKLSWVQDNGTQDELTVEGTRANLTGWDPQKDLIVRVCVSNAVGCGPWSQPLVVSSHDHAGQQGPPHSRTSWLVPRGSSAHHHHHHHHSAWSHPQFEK
Procedure: [The procedure below names another species; the source lists this species under the same test.] as §2

[6] = biological target: T1, recombinant His-Strep tagged human …; experiment: BLI (Octet K2), IgG on AHC tips, hTyro3 ECD analyte, 1:1 global fit; KD Error 5,96E-10
Procedure: as §1

[7] = biological target: T1, recombinant His-Strep tagged human …; experiment: BLI (Octet K2), IgG on AHC tips, hTyro3 ECD analyte, 1:1 global fit; KD Error 6,89E-09
Procedure: as §1

[8] = biological target: T1, recombinant His-Strep tagged human …; experiment: BLI (Octet K2), IgG on AHC tips, hTyro3 ECD analyte, 1:1 global fit; kon Error 8,90E+02
Procedure: as §1

[9] = biological target: T1, recombinant His-Strep tagged human …; experiment: BLI (Octet K2), IgG on AHC tips, hTyro3 ECD analyte, 1:1 global fit; kdis(1/s); kdis Error 1,71E-04
Procedure: as §1

[10] = biological target: T1, recombinant His-Strep tagged human …; experiment: BLI (Octet K2), IgG on AHC tips, hTyro3 ECD analyte, 1:1 global fit; KD Error 9,30E-10
Procedure: as §1

[11] = biological target: T1, recombinant His-Strep tagged human …; experiment: BLI (Octet K2), IgG on AHC tips, hTyro3 ECD analyte, 1:1 global fit; kon Error 7,98E+02
Procedure: as §1

[12] = biological target: T1, recombinant His-Strep tagged human …; experiment: BLI (Octet K2), IgG on AHC tips, hTyro3 ECD analyte, 1:1 global fit; kdis(1/s); kdis Error 4,43E-05
Procedure: as §1

[13] = biological target: T1, recombinant His-Strep tagged human …; experiment: BLI (Octet K2), IgG on AHC tips, hTyro3 ECD analyte, 1:1 global fit; KD Error 4,92E-09
Procedure: as §1

[14] = biological target: T1, recombinant His-Strep tagged human …; experiment: BLI (Octet K2), IgG on AHC tips, hTyro3 ECD analyte, 1:1 global fit; kdis(1/s); kdis Error 1,02E-04
Procedure: as §1

[15] = biological target: T1, recombinant His-Strep tagged human …; experiment: BLI (Octet K2), IgG on AHC tips, hTyro3 ECD analyte, 1:1 global fit; kon Error 3,95E+02
Procedure: as §1

[16] = biological target: T1, recombinant His-Strep tagged human …; experiment: BLI (Octet K2), IgG on AHC tips, hTyro3 ECD analyte, 1:1 global fit; kdis(1/s); kdis Error 3,33E-05
Procedure: as §1

[17] = biological target: T1, recombinant His-Strep tagged human …; experiment: BLI (Octet K2), IgG on AHC tips, hTyro3 ECD analyte, 1:1 global fit; KD Error 4,35E-10
Procedure: as §1

[18] = biological target: T1, recombinant His-Strep tagged human …; experiment: BLI (Octet K2), IgG on AHC tips, hTyro3 ECD analyte, 1:1 global fit; kon Error 1,04E+03
Procedure: as §1

B1: IgG2710 (antibody, V domains shown)
VH: EVQLVQSGADVKKPGASLTISCQASGYTFTDYWISWVRQKPGKGLEWMGVINKYASWTRYGPSFQGHVTISADRSTATAYLQWRSLEASDTAMYYCVRSGGLTSGGTIPEYYQHWGPGTLVTVSS
VL: SYELTQPPSVSVSPGQTARITCSGDALPKKYAYWYQQKSGQAPVLVIYEDSKRPSGIPERFSGSSSGTMATLTISGAQVEDEADYYCYSQNPQGNYFVFGGGTKLTVL
notes: also called IGX2710
B1 showed a kon [1] of 29000 M⁻¹ s⁻¹, a koff [2] of 0.00213 s⁻¹ and a kobs [3] of 0.00321 s⁻¹. The “EC50 (read off the curve)” value [4] was roughly 0.03 µg/mL, the “EC50 (read off the curve)” value [5] was roughly 0.01 µg/mL and the Kd [6] was 73.5 nM.

B2: IgG2414 (antibody, V domains shown)
VH: EVQLVQSGADVKKPGASLTISCQASGYTFTDYWISWVRQKPGKGLEWMGQINRHASNTMYGPSFQGHVTISADRSTATAYLQWRSLEASDTAMYYCVRSGGATSGGTIPEYYQHWGPGTLVTVSS
VL: SYELTQPPSVSVSPGQTARITCSGDALPKKYAYWYQQKSGQAPVLVIYEDWKRASGIPERFSGSSSGTMATLTISGAQVEDEADYYCYSQERKGNYFVFGGGTKLTVL
notes: also called IGX2414
Work on B2 yielded a Kd [7] of 308 nM, a kon [8] of 46900 M⁻¹ s⁻¹ and a kobs [3] of 0.0203 s⁻¹. For the same binder, the binding result [5] was “binds” and the koff [9] was 0.0144 s⁻¹.

B3: IgG2415 (antibody, V domains shown)
VH: EVQLVQSGADVKKPGASLTISCQASGYTFTDYWISWVRQKPGKGLEWMGQIRGPASATHYGPSFQGHVTISADRSTATAYLQWRSLEASDTAMYYCVRHQQQTSGGTIPEYYQHWGPGTLVTVSS
VL: SYELTQPPSVSVSPGQTARITCSGDALPKKYAYWYQQKSGQAPVLVIYEDKKRISGIPERFSGSSSGTMATLTISGAQVEDEADYYCYSTSTGGNYMVFGGGTKLTVL
notes: also called IGX2415
B3 showed a Kd [10] of 70.2 nM, a kon [11] of 76800 M⁻¹ s⁻¹ and a kobs [3] of 0.0102 s⁻¹. For the same binder, the “EC50 (read off the curve)” value [4] was roughly 0.02 µg/mL, the binding result [5] was “binds” and the koff [12] was 0.00539 s⁻¹.

B4: IgG2711 (antibody, V domains shown)
VH: EVQLVQSGADVKKPGASLTISCQASGYTFTDYWISWVRQKPGKGLEWMGQIRGQHSSTLYGPSFQGHVTISADRSTATAYLQWRSLEASDTAMYYCVRHGASTSGGTIPEYYQHWGPGTLVTVSS
VL: SYELTQPPSVSVSPGQTARITCSGDALPKKYAYWYQQKSGQAPVLVIYEDAKRSSGIPERFSGSSSGTMATLTISGAQVEDEADYYCYSLSDSGNYFVFGGGTKLTVL
notes: also called IGX2711
B4 was tested, and the Kd [13] was 307 nM, the kobs [3] was 0.014 s⁻¹ and the “EC50 (read off the curve)” value [4] was roughly 0.01 µg/mL. The binding result [5] was “binds”, the koff [14] was 0.00992 s⁻¹ and the kon [15] was 32300 M⁻¹ s⁻¹.

B5: IgG2713 (antibody, V domains shown)
VH: EVQLVQSGADVKKPGASLTISCQASGYTFTDYWISWVRQKPGKGLEWMGRISRHGSQTYYGPSFQGHVTISADRSTATAYLQWRSLEASDTAMYYCVRAGGQTSGGTIPEYYQHWGPGTLVTVSS
VL: SYELTQPPSVSVSPGQTARITCSGDALPKKYAYWYQQKSGQAPVLVIYEDHKRASGIPERFSGSSSGTMATLTISGAQVEDEADYYCYSISPAGNYGVFGGGTKLTVL
notes: also called IGX2713
In the case of B5, the kobs [3] is reported as 0.00934 s⁻¹, the “EC50 (read off the curve)” value [4] is reported as roughly 0.03 µg/mL and the binding result [5] is reported as “binds”. It also gave a koff [16] of 0.00478 s⁻¹, a Kd [17] of 39.3 nM and a kon [18] of 122000 M⁻¹ s⁻¹.
